Data taken from patent publication US6849458 (dated 2005).

Tests used:
[1] = target: human α-thrombin (human), P00734; assay: microplate thermal shift assay; Kd at Tm of Hirugen for thrombin with 50 µM 3dp-4660 present
[2] = target: human α-thrombin (human), P00734; assay: microplate thermal shift assay, 1,8-ANS fluorescence, 50 µM ligand, single ligand
[3] = target: human α-thrombin (human), P00734; assay: microplate thermal shift assay; Kd at 298 K of Hirugen for thrombin with 50 µM 3dp-4660 present
[4] = target: human α-thrombin (human), P00734; assay: microplate thermal shift assay; Kd at 298 K of Hirugen for thrombin with 200 µM heparin 5000 present
[5] = target: human α-thrombin (human), P00734; assay: microplate thermal shift assay; Kd at Tm of Hirugen for thrombin with 200 µM heparin 5000 present
[6] = target: human α-thrombin (human), P00734; assay: microplate thermal shift assay; 50 µM Hirugen added to thrombin with 50 µM 3dp-4660 present, shift against TH/3dp-4660
[7] = target: human α-thrombin (human), P00734; assay: microplate thermal shift assay; 50 µM Hirugen added to thrombin with 200 µM heparin 5000 present, shift against TH/heparin 5000
[8] = target: T1, acidic fibroblast growth factor (aFGF) (UniProt P05230 16-155, limits assumed); assay: microplate thermal shift assay, turbidity signal, 50 µM ligand
T1 sequence (P05230 16-155 limits assumed): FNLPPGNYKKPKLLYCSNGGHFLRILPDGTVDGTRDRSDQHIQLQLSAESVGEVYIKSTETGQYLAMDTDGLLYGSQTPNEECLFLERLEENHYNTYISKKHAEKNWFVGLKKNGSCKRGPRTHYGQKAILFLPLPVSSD

[9] = target: T1, acidic fibroblast growth factor (aFGF); assay: microplate thermal shift assay, turbidity signal; Kd at Tm (322.15 K) calculated with equation (1)
[10] = target: T1, acidic fibroblast growth factor (aFGF); assay: microplate thermal shift assay, turbidity signal; Kd at 298 K estimated with equation (3)

Binder DGDFEEIPEEYL (modifications not checked) [Hirugen (hirudin 53-64), P01050 53-64] has a Kd [1] of 0.731 µM, a ΔTm [2] of 5.8 ° K and a Kd [3] of 0.054 µM. The Kd [4] was 0.478 µM, the Kd [5] was 4.25 µM and the ΔTm [6] was 4.6 ° K. The ΔTm [7] was 2.6 ° K.

EEEEE gave a ΔTm [8] of 0 ° K.

EEEEEEEE was tested, and the Kd [9] was 10.1 µM, the Kd [10] was 3.04 µM and the ΔTm [8] was 5 ° K.
